This data set concerns MS2 coat protein. Kind of data set: apparent KD of MS2 coat protein; designed switch direction (-1 OFF switch, 1 ON switch): -1; higher = weaker reporter binding. Put shortly:
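SNAP-549-labelled MS2 coat protein was titrated, doubling from 0.7 or 1.5 nM to 3 µM, over designed RNA switches transcribed on Illumina chips by stalled E. coli RNA polymerase. Runs were done without input, with 200 uM small-molecule ligand, or with an oligonucleotide input. Apparent KD is the per-design median over clusters of curve-fitted normalised fluorescence.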

Where [1] appears, read: input ligand: microRNA oligo, concentration not stated.
[2] abbreviates: Eterna round: R95, input ligand: FMN 200 uM.
Where [3] appears, read: Eterna round: R95, input ligand: microRNA oligo, concentration not stated.
Setting [4] is: Eterna round: R95, input ligand: none.

Take “GCCGUUAAGGUAGGAUAUGCUCGGUCUGUGCGUGCAGAAGGGCUGGUCGGCGACUUGAGGAUCACCCAAGUGGUCUUAUAGAAA [Mutated MS2 EX1.21] (Eterna round: R96, puzzle: Exclusion NG 1)”: the “apparent KD of MS2 coat protein” value is, setting by setting: (input ligand: FMN 200 uM) 121 nM; under setting [1], 142 nM; (input ligand: none) 64.8 nM.
For “GCCUUACAUGAGGAUCACCCAUGUCAGGAUAUCGUUCAAGAUCUGACCUUAGAUCGAUCGAGAAGGGACUGGAU [Eternabot (L1) Solution 39] (Eterna round: R97, puzzle: Exclusion 1)”, the “apparent KD of MS2 coat protein” value (input ligand: FMN 200 uM) was 27.4 nM and the “apparent KD of MS2 coat protein” value (input ligand: none) was found to be 17.2 nM.
As for “GCCUUAUCCGUCAGGAUAUACAUUUUUUUUUUUUUGUAGAAGGGACAUGAGGAUCACCCAUGUACAUUACAUUG [alecazam17] (Eterna round: R97, puzzle: Brourd's mod of Exclusion 4)”, the “apparent KD of MS2 coat protein” value runs as follows: (input ligand: FMN 200 uM) 41 nM; (input ligand: none) 22.9 nM.
Consider “GCGAAAGCAAACAGGUGAAACAUGAGGAUCACCCAUGUCCUCAUUUGCUCGUCUUAUAAGCUAUGCGAAAGCAUAGC [Sensor 3, v1 - 8] (puzzle: Sensor v3, turn-off variant 1)”, for which the “apparent KD of MS2 coat protein” value runs as follows: under setting [2], 100 nM; under setting [3], 935 nM; under setting [4], 109 nM.
For “GCGAAUAACGAGGAUAUCGUAUCGGAAACGAUACGAGAAGGUGUAACAUGAGGAUCACCCAUGUUCCUCAACGC [Fiskers Ex 6 - 7] (puzzle: Exclusion 6)”, the “apparent KD of MS2 coat protein” value under setting [3] was found to be 33.1 nM.
Turning to “GCGACUGGAGGAUAUACAUGAGGAUCACCCAUGUGAUCUAAAAGGGUCUUAUGCCGGUGUAGAAGGCCGAGCAG [Eternabot (L2) Solution 84] (Eterna round: R97, puzzle: Exclusion 3)”, the “apparent KD of MS2 coat protein” value worked out at 26.7 nM (input ligand: FMN 200 uM) and 27.3 nM (input ligand: none).
For “GCGCACCUACCAAAAGGUAGGCUAACAUGAGGAUCACCCAUGUAGGAUAUCGAUUGCUUUGCAGUCGAGAAGGACAUGAUGCGC [JL ENG3 3.80 Mod 11] (Eterna round: R96, puzzle: Exclusion NG 3)”, the “apparent KD of MS2 coat protein” value (input ligand: FMN 200 uM) amounted to 73.2 nM, the “apparent KD of MS2 coat protein” value under setting [1] is 21.4 nM and the “apparent KD of MS2 coat protein” value (input ligand: none) is 30 nM.
“GCGCAGUCAGGAUAUGCCGGAUAGGAUCACCCUGUCCAAAGGCAGAAGGGACAUGAGGAUCACCCAUGUGGCGC [e4e Mirror Pins] (puzzle: Exclusion 4)”: the “apparent KD of MS2 coat protein” value is 22.2 nM under setting [2], 17.7 nM under setting [3] and 16.8 nM under setting [4].
For “GCGCCAUCGUGAGAUGGCGUAUAUACAUGAGGAUCACCCAUGUAGGAUAUCGAUUGCUUUGCAGUCGAGAAGGGCGUGUAAUUU [JL ENG3 3.92] (Eterna round: R96, puzzle: Exclusion NG 3)”, the “apparent KD of MS2 coat protein” value (input ligand: FMN 200 uM) is 45.7 nM, the “apparent KD of MS2 coat protein” value under setting [1] stood at 22.5 nM and the “apparent KD of MS2 coat protein” value (input ligand: none) is 34.8 nM.
Take “GCGCCUUGAGUGAGGAUAUGUUCAUAGUCGCUUGGAUAGAAGGCACAUGAGGAUCACCCAUGUAUCGGAGUUAA [Eternabot (L2) Solution 39] (Eterna round: R97, puzzle: Brourd's mod of Exclusion 4)”: the “apparent KD of MS2 coat protein” value runs as follows: (input ligand: FMN 200 uM) 48.2 nM; (input ligand: none) 33.9 nM.
In the case of “GCGCGAAGGUAGGAUAUCGAGGGAUCUUCCCGCCGAGAAGGACCCACAUGAGGAUCACCCAUGUGGUGAUCCUG [eternacac ex6r4 sub9] (Eterna round: R97, puzzle: Exclusion 6)”, the “apparent KD of MS2 coat protein” value is 27.1 nM (input ligand: FMN 200 uM) and 49.4 nM (input ligand: none).
Turning to “GCGGACAAGAUCGCGAGAUCAGAGACAUGAGGAUCACCCAUGUAGGAUAUCGAUUCGAAACGAAUCGAGAAGGGCAUAGUCCGC [JL denovo 5] (Eterna round: R96, puzzle: Exclusion NG 3)”, the “apparent KD of MS2 coat protein” value is, setting by setting: (input ligand: FMN 200 uM) 17.3 nM; under setting [1], 11.6 nM; (input ligand: none) 19.4 nM.
For “GCGGACAAGAUGGCGACAUCAGAGACAUGAGGAUCACCCAUGUAGGAUAUCGAUUCGAAACGAAUCGAGAAGGGCAUAGUCCGC [JL denovo 34] (Eterna round: R96, puzzle: Exclusion NG 3)”, in that order: 14.7 nM, 10.3 nM and 16.7 nM.
For “GCGGACUUGAACGUGAGUUCAGAGACAUGAGGAUCACCCAUGUAGGAUAUCGAUUCGAAACGAAUCGAGAAGGGCAUAGUCCGC [JL denovo 13] (Eterna round: R96, puzzle: Exclusion NG 3)” the same measures were 23.3 nM, 11.8 nM and 16.1 nM.
In the case of “GCGGAGAUCGUAUGAUAAUACAUGAGGAUCACCCAUGUGUAUACGAUGCAUGGUACCCGCCGCUUUGCUUGUCUUGC [Eternabot (L1) Solution 30] (Eterna round: R97, puzzle: Sensor, turn-off variant 1)”, the “apparent KD of MS2 coat protein” value was 16.4 nM (input ligand: FMN 200 uM) and 16.7 nM (input ligand: none).
“GCGGCUGACGUCAGGAUAUCCGUACCGUAUGGGUGGGAGAAGGGACAUGAGGAUCACCCAUGUUAAUCUAUUAA [Eternabot (L1) Solution 45] (Eterna round: R97, puzzle: Brourd's mod of Exclusion 4)”: the “apparent KD of MS2 coat protein” value is 62.7 nM (input ligand: FMN 200 uM) and 58.4 nM (input ligand: none).
With “GCGUAGUAUGUAGGAUAUCGGUCAGUUUCUGAUCGAGAAGGACAUGAGGAUCACCCAUGUAAAACGUCCGGUUUCUGGAUACGC [JL ENG1 3.57] (Eterna round: R96, puzzle: Exclusion NG 1)”, the “apparent KD of MS2 coat protein” value (input ligand: FMN 200 uM) worked out at 27.5 nM, the “apparent KD of MS2 coat protein” value under setting [1] stood at 16.3 nM and the “apparent KD of MS2 coat protein” value (input ligand: none) amounted to 23 nM.
In the case of “GCUAGGCAUGUCAGGAUAUGCUGUACCUUGGUACAGCAGAAGGGACAUGAGGAUCACCCAUGUGCCAACCUAGC [JL-BMX4-4.02] (Eterna round: R97, puzzle: Brourd's mod of Exclusion 4)”, the “apparent KD of MS2 coat protein” value was 736 nM (input ligand: FMN 200 uM) and 55.9 nM (input ligand: none).
For the sequence “GCUCCAGGAGGAUAUGCAUUCGAAAACAUGAGGAUCACCCAUGUAGGUGUCCUCGUGCGAGCAGAAGGCCUAAAAC [Rebebiso] (Eterna round: R97, puzzle: Exclusion 5)”, the “apparent KD of MS2 coat protein” value (input ligand: FMN 200 uM) stood at 145 nM and the “apparent KD of MS2 coat protein” value (input ligand: none) was 208 nM.
Consider “GCUGAUGCAGGAUAUAUAUGAAGCGUUCGAAUAGAAUGCGAACAUGAGGAUCACCCAUGUAGAAGGGCAUUGGC [Omei Ex 2, 1A] (puzzle: Exclusion 2)”, for which the “apparent KD of MS2 coat protein” value under setting [3] was 13.9 nM.
Regarding “GCUGCGCGAGGAUAUGCGGUUUGUGCUGUGGCCCGUGGCGUACAUGAGGAUCACCCAUGUAGAAGGCGUGUGGG [Apr-15 SS2-54] (puzzle: Exclusion 2)”, the “apparent KD of MS2 coat protein” value under setting [3] came to 22.5 nM.
For “GCUGGACGAGGAUAUACAAUCGUGCUUCGGCACGUAAGGUCACAUGAGGAUCACCCAUGUAGAAGGUGUCCAGC [E2/2-B2] (Eterna round: R97, puzzle: Exclusion 2)”, the “apparent KD of MS2 coat protein” value (input ligand: FMN 200 uM) is 54.8 nM and the “apparent KD of MS2 coat protein” value (input ligand: none) worked out at 18.3 nM.
Take “GCUGGUCGAGGAUAUACAAUCGUGCUUCGGCACGUAAGAUCACAUGAGGAUCACCCAUGUAGAAGGUGACCAGC [E2/1-B3] (Eterna round: R97, puzzle: Exclusion 2)”: the “apparent KD of MS2 coat protein” value (input ligand: FMN 200 uM) worked out at 118 nM and the “apparent KD of MS2 coat protein” value (input ligand: none) stood at 25.1 nM.
On to “GCUUGUGGGCAAGGAUAUCCUACGUUGUUCUGGUUCGUGUCUGUCACAUGAGGAUCACCCAUGUGGGAGAAGGUGCAUUUGGUU [Design 60] (Eterna round: R96, puzzle: Exclusion NG 2)”, for which the “apparent KD of MS2 coat protein” value by setting is: (input ligand: FMN 200 uM) 15.4 nM; under setting [1], 12.4 nM; (input ligand: none) 17.2 nM.
Regarding “GGAAAAAAAGUGAGGAUAUCCGGAGGGAAACCUCCGGAGAAGGCACAUGAGGAUCACCCAUGUAAAAAAAAAAA [AK-MS2ROC-r4-Bmoexclusion4-1] (Eterna round: R97, puzzle: Brourd's mod of Exclusion 4)”, the “apparent KD of MS2 coat protein” value by setting is: (input ligand: FMN 200 uM) 59.9 nM; (input ligand: none) 30.5 nM.
For “GGAAAGCAAGGAUAUACAAGGAGACGAUGGAAAGUAGAGCGACAUGAGGAUCACCCAUGUAGAAGGUGCGAGAG [JR_Exclu2_Sub038] (puzzle: Exclusion 2)”, the “apparent KD of MS2 coat protein” value under setting [2] is 40.7 nM, the “apparent KD of MS2 coat protein” value under setting [3] turned out to be 39.1 nM and the “apparent KD of MS2 coat protein” value under setting [4] worked out at 34.8 nM.
For the sequence “GGAAAGGUAGGAUAUACGAAGAAAAAGGGUAGAAUAAUAACACAUGAGGAUCACCCAUGUAGAAGGACCAAAGC [Mat - Exclusion 2 - Mod of my Tesla design - D13] (puzzle: Exclusion 2)”, the “apparent KD of MS2 coat protein” value was 49.5 nM under setting [2], 21 nM under setting [3] and 25.4 nM under setting [4].
As for “GGAAGGCGAGGAUAUACAAUAAAGAAAGGGAAAGACGUGAGACAUGAGGAUCACCCAUGUAGAAGGCGCGGAGA [AK-MS2ROC-r4-exclusion2-12] (Eterna round: R97, puzzle: Exclusion 2)”, the “apparent KD of MS2 coat protein” value runs as follows: (input ligand: FMN 200 uM) 40.1 nM; (input ligand: none) 32.4 nM.
As for “GGAAGGUGAGGAUAUACAAAGACGGAAACGUCAGGUGAGAGACAUGAGGAUCACCCAUGUAGAAGGCACGGAGA [AK-MS2ROC-r4-exclusion2-16.1] (Eterna round: R97, puzzle: Exclusion 2)”, the “apparent KD of MS2 coat protein” value is, setting by setting: (input ligand: FMN 200 uM) 279 nM; (input ligand: none) 74.4 nM.
For “GGAAUGUAAGGAUAUCCGAAAAGCGAGCGAAAGCGAGCAAAGGAGAAGGUACAUGAGGAUCACCCAUGUAAGGG [AK-MS2ROC-r4-exclusion4-12] (Eterna round: R97, puzzle: Exclusion 4)”, in that order: 58.9 nM and 768 nM.

For the origin of these results see the supplement of paper PMC9170038.
